Key:
Crimson = experiment: SEC; HPLC (LC-20A), Superdex 200 10/300 GL; 200 uL of fluorescent protein loaded at 10 uM; 0.5 mL/min; 50 mM PBS pH 7
mKate2 = experiment: as above

| Substance | stoichiometry N (Crimson) | stoichiometry N (mKate2) |
| --- | --- | --- |
| Crimson | 2 | – |
| mKate2 | – | 2 |
